Results on 13 molecules are retold here after patent publication US20160053277A1, “Compositions Having Dicamba Decarboxylase Activity and Methods of Use” (PIONEER HI-BRED INTERNATIONAL, INC., priority 2013, published 2016).

The chains are these.
B1: 104 (protein)
chain: MANILQEPIDFLKKEELKNIDLSQMSKKERYKIWKRIPKCELHCHLDLCFSADFFVSCIRKYNLQPNLSDEEVLDYYLFAKGGKSLGEFVEKAIKVADIFHDYEVIEDLAKHAVFNKYKEGVVLMEFRYSPTFVAFKYNLDIELIHQAIVKGIKEVVELLDHKIHVALMCIGDTGHEAANIKASADFCLKHKADFVGFDHGGHEVDLKEYKEIFDYVRESGVPLSVHAGEDVTLPNLNTLYSAIQVLKVERIGHGIRVAESQELIDMVKEKNILLEVCPISNVLLKNAKSMDTHPIRQLYDAGVKVSVNSDDPGMFLTNINDDYEELYTHLNFTLEDFMKMNEWALEKSFMDSNIKDKIKNLYF
modifications: Plasmodium Vivax
B2: 105 (protein)
chain: MAIDFHVHLDLYPDPVAVARACEERQLTVLSVTTTPAAWRGTLALAAGRPHVWTALGFHPEVVSERAADLPWFDRYLPETRFVGEVGLDGSPSLRGTWTQQFAVFQHILRRCEDHGGRILSIHSRRAESEVLNCLEANPRSGTPILHWYSGSVTELRRAISLGCWFSVGPTMVRTQKGAALIRSMPRDRVLTETDGPFLELDGQAALPWDVKSVVEGLSKIWQIPASEVERIVKENVSRLLGTVR
modifications: Deinococcus radiodurans
B3: 17 (protein)
chain: MARGKIALEEAFEVKGMDEEIDAQAALYIAPKDVERYKRQIVSITDERLQLSDQNGIGYSILSLTVPGIQGITDKDKAEKRARDVNNYIHDQIKDHRDRLGAFAALSMHDPRQAGHELRRCVKELGFHGALLNDVQHTGEGDDDQPLFYDQPDYDEFWRVAVELDVPVYLHPAAPLRDTLIYKQSYEDRKYLVGPPQSYCNGVALHLMGIIVNGVFDRFPNLKVIVGHMGERIPFDFWRMDHWVKGVTRPLAEKNGDTVCQKEPLYYFKRNIYITTSGHFSTQNLRYLYEWLGDERMMFSVDFPYERMEHGCQWYDDDAEKIKEALGGRDGYLRVGRDNARRLFKLTKFKDCDAV
modifications: Aspergillus niger
B4: 15 (protein, listed as Metarhizium anisopliae)
chain: MAQEIAKSHETSTRFAGFAVLPMRDPEAAAKELERAVKKLGFVGALVDHKTAHGNGFCEGNEYDVLWRKAEQLAVPIYLHPSWPTEKQFQQAYAGNYSPTAAGTIGGAMFNWHSEVGHHVLRLYAAGVFDKFPKLKIIIGHFGEMIPYMLDRIREQDHRLGKTGRTFSEVYDENIWITTSGVWSLDPMRCILANTKIDHILYSVDYPFTMNERGLEWFQELEKSGLLSEEDLALIAYKNCEKLLGVKAPTQD
B5: 8 (protein, listed as Metarhizium anisopliae)
chain: MARGKINFEEAFELPTLADSSREQAALYIAPKDLDRYIYHIKHPLGERLQLANSHGIGYTIYSLTVPGIQGIPDQSKAEQHATTVNDWIANEIKDHRDRLGAFAALSMHDAAQAAAELERCVRQHGFHGALLNNYQHAGPDGETYLFYDQPAYDVFWQKCVELDVPVYLHPAAPAGNYYKQMYAQRKYLVGPPLSFANDVSLHLLGLVTNGVFDRFPKLKVVVGHLGEHIPFDFWRISHWLEDVERPLAAGRGDVMSKKDLLYYFKNNIWVTTSGHFSTPTVRYVADYLGPERIMFSVDTPYETIENGVGWFDGEEDALTRALGGEDGYKKVARENAKKLFKLTKYHDCDA
B6: 106 (protein, listed as Pyrococcus horikoshii)
chain: MAGMKFIKNLHVSKLVIDSMKALINGTIYTSFNPLKKVSGLVISHGKVIYAGDSEVAKKIVELSGGEIVDLKGKYVMPAFFDSHLHLDELGMSLEMVDLRGAKSIEELIQRLKRGKGRIIFGFGWDQDELGEWPTRKELNAIDKPVFIYRKCFHVAVANDKMLELLNLTPSKDFDEDTGIIKEKSLEEARKVINERVLTVEDYVYYIKRAQEHLLDLGVKSVSFMSVNEKALRALFYLEREGKLSINVFAYVTPEVLDKLESIGLGRFQGNRLTIAGVKLFTDGSLGARTALLSKPYSDDPSTSGQLVMEREELIRITEKARSLGLDVAIHAIGDKALDVALDVFETTGFPGRIEHASLVRDDQLERVKNLKVRLSVQPHFIISDWWIVERVGEERVKWVYRFKDLMKVAELGFSTDSPIEPADPWLTVDAAVNRGKGKVKLYELTKDQALDIKDALHSYTYGSARVSLASDIGKLEPGFKAEYIILDRDPLVVK
B7: 12 (protein, listed as Zymoseptoria tritici)
chain: MALGKVAFEEAFALPRFKERTTWWAGLFAVDPEKHTREINDINKLRIEKMDQFGVGYTLLSYTAPGVQDVWQQEEADALAREVNDHVAAEIKGHEDRLGALATLSMHDPQTASAELRRCIKDYGFKGALVNDTQRNDESGTGMIFYDGPEWDVFWSTVQELDVPFYLHPRNPTGVFMEKLWAPRKWLVGPPLSFAQGVSLHLLGMVTNGTFDRFPNLQVIIGHLGEHLPFDLWRINHWFEDIKKPLGLDCKKTIREYFNENIWITTSGHFSTPTLEYCIKEIGAERILFSIDYPFEKFEDACDWYDGVELDGPDTVKKIGRENAKKLFKLGAFKDDSA
B8: 14 (protein, listed as Talaromyces marneffei)
chain: MARGKVSFEEAYEIPALADKSREQAALYIAPKDLDRYLSEIKSPTGGRLDISNKNGIGYTIYSLTVPGVQGIADKAKAEKHATDVNNWIYNEIKDHRDRMGAFAALSMHDPVQAGQELERCVKKLGFHGALLNNWQHAGTDGETYIFYDHPSYDVFWQKCVELDVPVYLHPSAPSGKVFDTFFKDRRYLIGPPISFAQDVALHTMGLITNGVFDRNPKLKLILGHLGERIPQDLWRTNHWLEDVERPLADSRGDTMSRKPLLYYFKNNIYVTTSGHFSTETVKFVCDYFGADRILFSVDSPYEKIEEGAGWYDKDKDNLTKALGGPQQYLDVGRENAKKLFKLGKYHDCDA
B9: 9 (protein, listed as Octadecabacter antarcticus)
chain: MATPKITFEEHFMAPGFEKHSEAFLKLIPRDQAEILTRRLGDFDGERIETMDRGGITRSIISLTGPGTQGEAVEKAVSAAQGANDFLAEKISKKPDRLGGLATLPMHDPDAAARELNRAVNDLGLQGCLVNTHTHGAYYEGTDYDPFWAEVEKLGVPFYLHPSNAYVTPHVLGGMPVLQGATWGWGVETGSHALRILFGGVFDRFPDVKLVLGHMGEALPFLRWRYDSRFGAYPMGVSLDRAPSAYFGSNILITTSGVCSHPSLIGAIGEMGADAVMFSVDYPYEDTDLAVEFIETAPLEDATRVKICHDNAARLFGMPTLAAKEGA
B10: 11 (protein)
chain: MALGKIALEEAFALPRFEEKTRWWASLFSVDPETHVKEITDINKLRIEHADKYGVGYQILSYTAPGVQDIWDPVEAQALAVEINDYIAEQIRDKPDRFGAFATLSMHNPQEAASELRRCVQTYGFKGALVNDTQRAGPDGDDMIFYDNASWDIFWQTCTELDVPLYLHPRNPTGTIYEKLWADRKWLVGPPLSFAQGVSLHVLGMVTNGVFDRHPNLQLIMGHLGEHVPFDMWRINHWFEDRKKLLGLAETCKKTIREYFAQNIWITTSGHFSTTTLNFCMAEVGVDRILFSIDYPFETFEDACVWFDGAELNLSDKAKIGRDNAARLFKLGAFRDYDAKVKA
modifications: Aspergillus niger
B11: 13 (protein, listed as Metarhizium acridum)
chain: MAHGKVALEEAFALPRLHEKTRWWASLFAVNPDKHAAEMTDITDIRINYMDKHGVGYTILSYTAPGVQDISDPKEAQALAVEINDYVAGAIKNHPDRFGAFATLSMRNPQEAATELKRCVTQYGFKGALVNDTQRAGEDDMIFYDGPEWDVFWSTVEELDVPFYLHPRNPTGSLYEKLWAKRKWLVGPPLSFAQGVSLHVLGMVTNGVFDRHPKLQVVLGHLGEHIPFDMWRINHWFEDVKKPLGLDCKKTIREYFQQNIWITTSGHFSTTTLQFCMAEVGADRILFSIDYPFECFADACDWYDGVPINLVDKAKIGRDNARRLFKLPEFKDSEKHVDA
B12: 107 (protein, listed as Rhodopseudomonas palustris)
chain: MAIIDIHGHYTTAPKALEDWRNRQIAGIKDPSVMPKVSELKISDDELQASIIENQLKKMQERGSDLTVFSPRASFMAHHIGDFNVSSTWAAICNELCYRVSQLFPDNFIGAAMLPQSPGVDPKTCIPELEKCVKEYGFVAINLNPDPSGGHWTSPPLTDRIWYPIYEKMVELEIPAMIHVSTSCNTCFHTTGAHYLNADTTAFMQCVAGDLFKDFPELKFVIPHGGGAVPYHWGRFRGLAQEMKKPLLEDHVLNNIFFDTCVYHQPGIDLLNTVIPVDNVLFASEMIGAVRGIDPRTGFYYDDTKRYIEASTILTPEEKQQIYEGNARRVYPRLDAALKAKGK
B13: 10 (protein, listed as Starkeya novella)
chain: MARKIALEEHFTTPELAGKYVARPTQSDALFADIERRLADFDELRLEMMDRAEIDLMVLSVTTPGVQGVRDTGEAIRLARGANDFLAREVQKRPSRYAGFAHLAMQDAEAAATELERAVRELGFRGALINGQTNGHYLDEDQYAPFWERVQELDVPVYLHPGNMADSPAMFAHRPELGGPIWAWTAETAAHALRLVFGGTFTRFPGAKVILGHMGETLPFLLWRLDSRREFDLGEKLAPDALPSAIIKRNIAVTTSGVCDPAPLVAALQALSDDNVMFSVDYPYEDPQLASKFIETAPIGEETRAKVCHGNAERLLGL

The first data set is described as follows: Saturation mutagenesis of SEQ ID NO:109: dicamba decarboxylation activity of point mutants (carbon dioxide released). The conditions noted are these: decarboxylation activity (carbon dioxide released) of point mutant compared with unmutated backbone protein; backbone SEQ ID NO: 109.
With B1, the “Fold Activity” value turned out to be 2.1.

Regarding B2, the “Fold Activity” value is listed as 0.9.

Regarding B3, the “Fold Activity” value turned out to be 1.8.

With B4, the “Fold Activity” value worked out at 1.

For B5, the “Fold Activity” value amounted to 1.3.

As for B6, the “Fold Activity” value was 0.8.

For the molecule B7, the “Fold Activity” value stood at 0.9.

Take B8: the “Fold Activity” value came to 1.

Regarding B9, the “Fold Activity” value is given as 1.2.

With B10, the “Fold Activity” value was determined as 1.

As to B11, the “Fold Activity” value is reported as 1.

For the molecule B12, the “Fold Activity” value worked out at 1.7.

Regarding B13, the “Fold Activity” value is 1.2.

A further data set in a line: 14C assay with IPTG-induced recombinant E. coli cells: 14CO2 captured from [14C]-carboxyl-labeled dicamba. The conditions noted are these: dicamba decarboxylation activity of the protein of the given SEQ ID NO; High / Low / No.
Regarding B1, the “Enzymatic Detection level” value was “No”.

As for B2, the “Enzymatic Detection level” value is “No”.

Take B3: the “Enzymatic Detection level” value is listed as “Low”.

In the case of B4, the “Enzymatic Detection level” value was “Low”.

Take B5: the “Enzymatic Detection level” value is “Low”.

As for B6, the “Enzymatic Detection level” value is “No”.

With B7, the “Enzymatic Detection level” value was “No”.

Turning to B8, the “Enzymatic Detection level” value is on record as “Low”.

With B9, the “Enzymatic Detection level” value is on record as “No”.

As for B10, the “Enzymatic Detection level” value was “Low”.

With B11, the “Enzymatic Detection level” value is listed as “No”.

Regarding B12, the “Enzymatic Detection level” value is given as “No”.

Take B13: the “Enzymatic Detection level” value is on record as “Low”.

The data set is the same for the next values; noted with them: induced recombinant E. coli cells, [14C]-carboxyl-labeled dicamba, 14CO2 capture.
For the molecule B1, the “Dicamba Decarboxylase Activity” value is reported as “No”.

On to B2, for which the “Dicamba Decarboxylase Activity” value was “No”.

As to B3, the “Dicamba Decarboxylase Activity” value was “Low”.

In the case of B4, the “Dicamba Decarboxylase Activity” value is on record as “Low”.

B5: the “Dicamba Decarboxylase Activity” value is listed as “Low”.

Take B6: the “Dicamba Decarboxylase Activity” value is reported as “No”.

As for B7, the “Dicamba Decarboxylase Activity” value is “No”.

Consider B8, for which the “Dicamba Decarboxylase Activity” value is reported as “Low”.

For the molecule B9, the “Dicamba Decarboxylase Activity” value was “No”.

Turning to B10, the “Dicamba Decarboxylase Activity” value is given as “Low”.

Regarding B11, the “Dicamba Decarboxylase Activity” value is “No”.

As for B12, the “Dicamba Decarboxylase Activity” value is recorded as “No”.

For B13, the “Dicamba Decarboxylase Activity” value is on record as “Low”.
